B1: F2-20 (VHH)
VHH: QVQLVESGGGLVQAGGSLRLSCAASGRTFSRYAMGWFRQAPGKEREFVARISWSGDITYYADSVKGRFTISRDNAKNTVYLQMNSLKPEDTAVYYCAADAILRTRPPYESDYWGQGTQVTVSS
B2: F2-02 (VHH)
VHH: QVQLVESGGGLVQAGGSLRLSCAASGRTFRSFAMGWFRQAPGKEREFVATISWWSNNTYYADSVKGRFTISRDIAKNTVYLQMNSLKPEDTAVYYCAADLGPWLTAGQYDYWGQGTQVTVSS
B3: F1-04 (VHH)
VHH: QVQLVESGGGLVQVGGSLRLSCAASERPSSNYAMGWFRQAPGKEQEFVAAIYWSGGGTAYGDSVKGRFTISKDNAKNTVYLQMNDLKPEDTGMYYCTTDHYGSWSYEYGSWGQGTQVTVSS
B4: F2-24 (VHH)
VHH: QVQLVESGGGLVQAGGSLRLSCASSGHTFNSYVMGWFRQAPGKEREFVAAIRPSGVSTYYADSVKGRFTISRDNAKNTVSLEMNSLKPEDTAVYYCAGDRDHSMMAVRRLSSYRQWGRGTQVTVSS

molecular target: Influenza Hemagglutinin B (influenza B virus); assay: ELISA on Influenza Hemagglutinin B (1 ug/mL); 293 supernatant diluted 1:10

In order of rising ELISA signal:
1. B2  0.826
2. B3  1.47
3. B1  1.58
4. B4  1.69

molecular target: Influenza Hemagglutinin A (influenza A virus); assay: ELISA on Influenza Hemagglutinin A (1 ug/mL); 293 supernatant diluted 1:1000

In order of rising ELISA signal:
1. B4  0.279
2. B3  0.366
3. B1  0.442
4. B2  0.73

molecular target: Influenza Hemagglutinin A (influenza A virus); assay: ELISA on Influenza Hemagglutinin A (1 ug/mL); 293 supernatant diluted 1:100

In order of falling ELISA signal:
1. B3  2
2. B2  1.09
3. B1  0.629
4. B4  0.427

molecular target: Influenza Hemagglutinin B (influenza B virus); assay: ELISA on Influenza Hemagglutinin B (1 ug/mL); 293 supernatant diluted 1:1000

In order of falling ELISA signal:
1. B4  1.63
2. B1  1.2
3. B3  0.738
4. B2  0.61

molecular target: Influenza Hemagglutinin B (influenza B virus); assay: ELISA on Influenza Hemagglutinin B (1 ug/mL); 293 supernatant diluted 1:100

In order of falling ELISA signal:
1. B4  1.85
2. B3  1.63
3. B1  1.52
4. B2  0.863

molecular target: Influenza Hemagglutinin B (influenza B virus); assay: ELISA on Influenza Hemagglutinin B (1 ug/mL); 293 supernatant diluted 1:10000

In order of rising ELISA signal:
1. B3  0.205
2. B2  0.266
3. B1  0.805
4. B4  1.45

molecular target: Influenza Hemagglutinin A (influenza A virus); assay: ELISA on Influenza Hemagglutinin A (1 ug/mL); 293 supernatant diluted 1:10

In order of rising ELISA signal:
1. B4  0.444
2. B1  0.884
3. B2  1.21
4. B3  1.76

molecular target: Influenza Hemagglutinin A (influenza A virus); assay: ELISA on Influenza Hemagglutinin A (1 ug/mL); 293 supernatant diluted 1:10000

In order of rising ELISA signal:
1. B3  0.058
2. B4  0.15
3. B1  0.269
4. B2  0.405

Reference: patent US12065483
